Laboratory results published in US20260191905A1 (MODERNATX, published 2026).

Target: T1, human GPC3 recombinant protein (human, UniProt P51654 25-559)
T1 construct: also called huGPC3; Human GPC3 protein
Assay: SPR epitope binning on human GPC3
Experimental: The 19 VHH-His tagged domains were then evaluated for epitope-binding site. All VHHs were injected one at a time to evaluate the epitope binding site for each VHH domain. […] Human GPC3 was injected followed by an off rate wash for 4 minutes. No binding is observed if the VHH binds at the same epitope as VHH2, while a second binding event is observed if the VHH binds at a different epitope. All VHHs were binned into two groups based on the epitopes. VHH2 and VHH3 bind the same epitope and all other VHs bind the second epitope (FIG. 19).

T1 sequence (P51654 25-559 limits assumed): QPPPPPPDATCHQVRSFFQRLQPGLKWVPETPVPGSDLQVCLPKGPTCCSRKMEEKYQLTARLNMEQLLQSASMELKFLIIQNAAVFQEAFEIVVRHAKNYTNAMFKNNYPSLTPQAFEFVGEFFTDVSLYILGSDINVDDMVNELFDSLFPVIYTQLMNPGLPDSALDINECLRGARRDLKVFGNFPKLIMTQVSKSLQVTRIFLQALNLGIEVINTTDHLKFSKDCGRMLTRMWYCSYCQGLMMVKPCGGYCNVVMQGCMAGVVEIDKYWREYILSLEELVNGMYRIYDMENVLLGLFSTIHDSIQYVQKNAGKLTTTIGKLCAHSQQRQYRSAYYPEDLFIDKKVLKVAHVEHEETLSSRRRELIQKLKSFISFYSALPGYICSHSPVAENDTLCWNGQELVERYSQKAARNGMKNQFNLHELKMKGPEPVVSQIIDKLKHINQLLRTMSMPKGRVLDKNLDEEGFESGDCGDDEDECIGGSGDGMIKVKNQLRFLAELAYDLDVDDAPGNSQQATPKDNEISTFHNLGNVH

B1: anti-GPC3 VHH-His tagged domain VHH19 (VHH)
VHH: EEQLVESGGGLVQPGGSLRLSCAASGFTFSSYAMSWVRQAPGKEPEWVSSISGGGGSTYYADSLKGRFTISRDNSKNTLYLQMNSLRAEDTAVYYCARDPRYGEPPFDYRCQGTTVTVSS
notes: Produced from a mammalian expression vector as a His fusion; not shown: His tag
B1: binds.
